The supplement of paper PMC5998384

Legend:
[1] = tested on: HeLa Kyoto; test: thermal stability score vs G1/S (z-score of summed log2 fold changes over temperatures); higher = more thermally stable than in G1/S
[2] = tested on: HeLa Kyoto; test: solubility in G1/S (NP-40 vs SDS abundance) (log2 ratio); higher = more soluble; details: cell cycle stage: G1/S
[3] = tested on: HeLa Kyoto; test: melting temperature (median over replicates), in situ; higher = more thermally stable
[4] = tested on: HeLa Kyoto; test: solubility change mitosis vs G1/S (difference of NP-40 vs SDS log2 ratios) (log2 ratio difference); higher = more soluble in mitosis
[5] = cell cycle stage: early G1 (4.5 h after nocodazole release)
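Wherever melting temperature (median over replicates), in situ is given: HeLa Kyoto cells synchronized by double thymidine or nocodazole block, proteins quantified by TMT10plex mass spectrometry, three independent biological replicates.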
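Wherever solubility change mitosis vs G1/S (difference of NP-40 vs SDS log2 ratios) is given: synchronized HeLa Kyoto cells (double thymidine block for G1/S, nocodazole release for mitosis), protein amounts in NP-40 versus SDS lysates quantified by mass spectrometry, three biological replicates.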
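Wherever solubility in G1/S (NP-40 vs SDS abundance) is given: HeLa Kyoto cells arrested at G1/S by double thymidine block, proteins quantified by TMT10plex mass spectrometry in mild NP-40 versus SDS extracts, three biological replicates.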
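Wherever thermal stability score vs G1/S (z-score of summed log2 fold changes over temperatures) is given: synchronized HeLa Kyoto cells, proteins quantified by TMT10plex mass spectrometry, three biological replicates, mitosis taken 0.5 h after nocodazole release, G1/S directly after double thymidine block.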

PPP2R5D, sequence (chain, as listed by the source): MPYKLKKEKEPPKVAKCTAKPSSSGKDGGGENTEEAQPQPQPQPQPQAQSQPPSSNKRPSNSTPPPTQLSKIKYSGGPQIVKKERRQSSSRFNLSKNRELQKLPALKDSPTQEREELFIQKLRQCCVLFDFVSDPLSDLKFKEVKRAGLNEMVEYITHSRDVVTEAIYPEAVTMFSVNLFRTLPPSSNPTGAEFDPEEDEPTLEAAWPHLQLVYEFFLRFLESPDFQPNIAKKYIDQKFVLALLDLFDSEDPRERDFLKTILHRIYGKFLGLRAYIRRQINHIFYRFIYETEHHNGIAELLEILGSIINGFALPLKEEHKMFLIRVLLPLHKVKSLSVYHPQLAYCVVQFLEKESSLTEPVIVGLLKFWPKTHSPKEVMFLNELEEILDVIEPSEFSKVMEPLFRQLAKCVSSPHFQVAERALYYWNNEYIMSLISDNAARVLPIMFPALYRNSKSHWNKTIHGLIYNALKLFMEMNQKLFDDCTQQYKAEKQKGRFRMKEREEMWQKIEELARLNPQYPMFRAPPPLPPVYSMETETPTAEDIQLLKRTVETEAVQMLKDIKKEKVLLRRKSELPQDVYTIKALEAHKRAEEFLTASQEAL
SLC38A10, sequence (chain, as listed by the source): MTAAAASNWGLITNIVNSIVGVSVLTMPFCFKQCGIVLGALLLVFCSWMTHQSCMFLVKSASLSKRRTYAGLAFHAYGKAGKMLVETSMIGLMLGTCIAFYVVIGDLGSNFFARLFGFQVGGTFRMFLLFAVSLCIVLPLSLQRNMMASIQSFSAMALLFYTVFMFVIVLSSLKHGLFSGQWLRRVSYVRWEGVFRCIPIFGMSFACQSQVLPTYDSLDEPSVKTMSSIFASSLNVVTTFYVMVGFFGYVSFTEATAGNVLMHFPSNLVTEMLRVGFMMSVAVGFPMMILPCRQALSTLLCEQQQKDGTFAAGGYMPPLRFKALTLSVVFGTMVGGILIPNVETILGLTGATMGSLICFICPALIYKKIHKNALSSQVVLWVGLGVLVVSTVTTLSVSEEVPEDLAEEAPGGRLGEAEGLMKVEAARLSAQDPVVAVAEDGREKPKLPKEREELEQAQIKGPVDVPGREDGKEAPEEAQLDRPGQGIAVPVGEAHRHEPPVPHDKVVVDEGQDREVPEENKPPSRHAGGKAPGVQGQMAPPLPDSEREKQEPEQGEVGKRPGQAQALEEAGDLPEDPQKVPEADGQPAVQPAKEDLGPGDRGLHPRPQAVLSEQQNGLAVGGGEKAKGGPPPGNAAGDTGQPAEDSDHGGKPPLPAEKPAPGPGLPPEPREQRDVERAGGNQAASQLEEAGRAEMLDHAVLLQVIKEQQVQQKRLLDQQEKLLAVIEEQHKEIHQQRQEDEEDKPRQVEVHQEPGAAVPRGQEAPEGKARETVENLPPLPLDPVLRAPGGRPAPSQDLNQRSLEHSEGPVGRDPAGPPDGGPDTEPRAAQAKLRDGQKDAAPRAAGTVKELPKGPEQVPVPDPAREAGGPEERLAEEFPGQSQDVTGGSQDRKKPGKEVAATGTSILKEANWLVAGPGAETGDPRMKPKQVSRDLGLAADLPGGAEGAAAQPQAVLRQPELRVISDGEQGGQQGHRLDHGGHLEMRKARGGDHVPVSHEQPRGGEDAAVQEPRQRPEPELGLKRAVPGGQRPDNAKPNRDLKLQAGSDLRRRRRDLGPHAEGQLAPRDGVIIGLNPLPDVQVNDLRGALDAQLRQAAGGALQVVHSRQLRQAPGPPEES

Row | Substance | thermal stability score [1, 5] | thermal stability score ([1]; cell cycle stage: mitosis) | solubility in G1/S (log2) [2] | melting temperature ([3]; cell cycle stage: G1/S) [°C] | melting temperature ([3]; cell cycle stage: mitosis) [°C] | solubility change mitosis (log2) [4]
1 | MPSLLVLTFSPCVLLGWALLAGGTGGGGVGGGGGGAGIGGGRQEREALPPQKIEVLVLLPQDDSYLFSLTRVRPAIEYALRSVEGNGTGRRLLPPGTRFQVAYEDSDCGNRALFSLVDRVAAARGAKPDLILGPVCEYAAAPVARLASHWDLPMLSAGALAAGFQHKDSEYSHLTRVAPAYAKMGEMMLALFRHHHWSRAALVYSDDKLERNCYFTLEGVHEVFQEEGLHTSIYSFDETKDLDLEDIVRNIQASERVVIMCASSDTIRSIMLVAHRHGMTSGDYAFFNIELFNSSSYGDGSWKRGDKHDFEAKQAYSSLQTVTLLRTVKPEFEKFSMEVKSSVEKQGLNMEDYVNMFVEGFHDAILLYVLALHEVLRAGYSKKDGGKIIQQTWNRTFEGIAGQVSIDANGDRYGDFSVIAMTDVEAGTQEVIGDYFGKEGRFEMRPNVKYPWGPLKLRIDENRIVEHTNSSPCKSSGGLEESAVTGIVVGALLGAGLLMAFYFFRKKYRITIERRTQQEESNLGKHRELREDSIRSHFSVA [NPR3] | -4.69 | -4.35 | 0.0598 | 53.9 | 54.4 | -0.0686
2 | MAASSLEQKLSRLEAKLKQENREARRRIDLNLDISPQRPRPTLQLPLANDGGSRSPSSESSPQHPTPPARPRHMLGLPSTLFTPRSMESIEIDQKLQEIMKQTGYLTIGGQRYQAEINDLENLGEMGSGTCGQVWKMRFRKTGHVIAVKQMRRSGNKEENKRILMDLDVVLKSHDCPYIVQCFGTFITNTDVFIAMELMGTCAEKLKKRMQGPIPERILGKMTVAIVKALYYLKEKHGVIHRDVKPSNILLDERGQIKLCDFGISGRLVDSKAKTRSAGCAAYMAPERIDPPDPTKPDYDIRADVWSLGISLVELATGQFPYKNCKTDFEVLTKVLQEEPPLLPGHMGFSGDFQSFVKDCLTKDHRKRPKYNKLLEHSFIKRYETLEVDVASWFKDVMAKTESPRTSGVLSQPHLPFFR [MAP2K7] | 1.35 | 1.39 | 0.237 | 49.9 | 50 | 0.0421
3 | MGNGMCSRKQKRIFQTLLLLTVVFGFLYGAMLYYELQTQLRKAEAVALKYQQHQESLSAQLQVVYEHRSRLEKSLQKERLEHKKAKEDFLVYKLEAQETLNKGRQDSNSRYSALNVQHQMLKSQHEELKKQHSDLEEEHRKQGEDFSRTFNDHKQKYLQLQQEKEQELSKLKETVYNLREENRQLRKAHQDIHTQLQDVKQQHKNLLSEHEQLVVTLEDHKSALAAAQTQVAEYKQLKDTLNRIPSLRKPDPAEQQNVTQVAHSPQGYNTAREKPTREVQEVSRNNDVWQNHEAVPGRAEDTKLYAPTHKEAEFQAPPEPIQQEVERREPEEHQVEEEHRKALEEEEMEQVGQAEHLEEEHDPSPEEQDREWKEQHEQREAANLLEGHARAEVYPSAKPMIKFQSPYEEQLEQQRLAVQQVEEAQQLREHQEALHQQRLQGHLLRQQEQQQQQVAREMALQRQAELEEGRPQHQEQLRQQAHYDAMDNDIVQGAEDQGIQGEEGAYERDNQHQDEAEGDPGNRHEPREQGPREADPESEADRAAVEDINPADDPNNQGEDEFEEAEQVREENLPDENEEQKQSNQKQENTEVEEHLVMAGNPDQQEDNVDEQYQEEAEEEVQEDLTEEKKRELEHNAEETYGENDENTDDKNNDGEEQEVRDDNRPKGREEHYEEEEEEEEDGAAVAEKSHRRAEM [GOLIM4] | -2.18 | -3.71 | 0.317 | 54 | 53 | -0.0167
4 | MEAARPPPTAGKFVVVGGGIAGVTCAEQLATHFPSEDILLVTASPVIKAVTNFKQISKILEEFDVEEQSSTMLGKRFPNIKVIESGVKQLKSEEHCIVTEDGNQHVYKKLCLCAGAKPKLICEGNPYVLGIRDTDSAQEFQKQLTKAKRIMIIGNGGIALELVYEIEGCEVIWAIKDKAIGNTFFDAGAAEFLTSKLIAEKSEAKIAHKRTRYTTEGRKKEARSKSKADNVGSALGPDWHEGLNLKGTKEFSHKIHLETMCEVKKIYLQDEFRILKKKSFTFPRDHKSVTADTEMWPVYVELTNEKIYGCDFIVSATGVTPNVEPFLHGNSFDLGEDGGLKVDDHMHTSLPDIYAAGDICTTSWQLSPVWQQMRLWTQARQMGWYAAKCMAAASSGDSIDMDFSFELFAHVTKFFNYKVVLLGKYNAQGLGSDHELMLRCTKGREYIKVVMQNGRMMGAVLIGETDLEETFENLILNQMNLSSYGEDLLDPNIDIEDYFD [PYROXD1] | -0.128 | -0.037 | -0.102 | 49.6 | 49.9 | -0.158
5 | SLC38A10 | 2.59 | 0.548 | -0.351 | 54.2 | 54.7 | 0.284
6 | MVEKEEAGGGISEEEAAQYDRQIRLWGLEAQKRLRASRVLLVGLKGLGAEIAKNLILAGVKGLTMLDHEQVTPEDPGAQFLIRTGSVGRNRAEASLERAQNLNPMVDVKVDTEDIEKKPESFFTQFDAVCLTCCSRDVIVKVDQICHKNSIKFFTGDVFGYHGYTFANLGEHEFVEEKTKVAKVSQGVEDGPDTKRAKLDSSETTMVKKKVVFCPVKEALEVDWSSEKAKAALKRTTSDYFLLQVLLKFRTDKGRDPSSDTYEEDSELLLQIRNDVLDSLGISPDLLPEDFVRYCFSEMAPVCAVVGGILAQEIVKALSQRDPPHNNFFFFDGMKGNGIVECLGPK [SAE1] | 0.0359 | 0.096 | 0.0883 | 52.4 | 52.3 | -0.153
7 | MAELTALESLIEMGFPRGRAEKALALTGNQGIEAAMDWLMEHEDDPDVDEPLETPLGHILGREPTSSEQGGLEGSGSAAGEGKPALSEEERQEQTKRMLELVAQKQREREEREEREALERERQRRRQGQELSAARQRLQEDEMRRAAEERRREKAEELAARQRVREKIERDKAERAKKYGGSVGSQPPPVAPEPGPVPSSPSQEPPTKREYDQCRIQVRLPDGTSLTQTFRAREQLAAVRLYVELHRGEELGGGQDPVQLLSGFPRRAFSEADMERPLQELGLVPSAVLIVAKKCPS [UBXN1] | -1.73 | -2.31 | 0.608 | 52.1 | 51.3 | 0.313
8 | MLFYSFFKSLVGKDVVVELKNDLSICGTLHSVDQYLNIKLTDISVTDPEKYPHMLSVKNCFIRGSVVRYVQLPADEVDTQLLQDAARKEALQQKQ [LSM2] | -1.17 | -1.99 | -0.0676 | 59.9 | 57.5 | 0.0659
9 | PPP2R5D | 1.54 | 3.42 | -0.0693 | 48.2 | 48.4 | 0.0185
10 | MGTPRAQHPPPPQLLFLILLSCPWIQGLPLKEEEILPEPGSETPTVASEALAELLHGALLRRGPEMGYLPGSDRDPTLATPPAGQTLAVPSLPRATEPGTGPLTTAVTPNGVRGAGPTAPELLTPPPGTTAPPPPSPASPGPPLGPEGGEEETTTTIITTTTVTTTVTSPVLCNNNISEGEGYVESPDLGSPVSRTLGLLDCTYSIHVYPGYGIEIQVQTLNLSQEEELLVLAGGGSPGLAPRLLANSSMLGEGQVLRSPTNRLLLHFQSPRVPRGGGFRIHYQAYLLSCGFPPRPAHGDVSVTDLHPGGTATFHCDSGYQLQGEETLICLNGTRPSWNGETPSCMASCGGTIHNATLGRIVSPEPGGAVGPNLTCRWVIEAAEGRRLHLHFERVSLDEDNDRLMVRSGGSPLSPVIYDSDMDDVPERGLISDAQSLYVELLSETPANPLLLSLRFEAFEEDRCFAPFLAHGNVTTTDPEYRPGALATFSCLPGYALEPPGPPNAIECVDPTEPHWNDTEPACKAMCGGELSEPAGVVLSPDWPQSYSPGQDCVWGVHVQEEKRILLQVEILNVREGDMLTLFDGDGPSARVLAQLRGPQPRRRLLSSGPDLTLQFQAPPGPPNPGLGQGFVLHFKEVPRNDTCPELPPPEWGWRTASHGDLIRGTVLTYQCEPGYELLGSDILTCQWDLSWSAAPPACQKIMTCADPGEIANGHRTASDAGFPVGSHVQYRCLPGYSLEGAAMLTCYSRDTGTPKWSDRVPKCALKYEPCLNPGVPENGYQTLYKHHYQAGESLRFFCYEGFELIGEVTITCVPGHPSQWTSQPPLCKVTQTTDPSRQLEGGNLALAILLPLGLVIVLGSGVYIYYTKLQGKSLFGFSGSHSYSPITVESDFSNPLYEAGDTREYEVSI [SEZ6L2] | -0.928 | -1.52 | -0.174 | 53.7 | 54.8 | 0.0248
11 | MKKKTVCTLNMGDKKYEDMEGEENGDNTISTGLLYSEADRCPICLNCLLEKEVGFPESCNHVFCMTCILKWAETLASCPIDRKPFQAVFKFSALEGYVKVQVKKQLRETKDKKNENSFEKQVSCHENSKSCIRRKAIVREDLLSAKVCDLKWIHRNSLYSETGGKKNAAIKINKPQRSNWSTNQCFRNFFSNMFSSVSHSGESSFTYRAYCTEFIEASEISALIRQKRHELELSWFPDTLPGIGRIGFIPWNVETEVLPLISSVLPRTIFPTSTISFEHFGTSCKGYALAHTQEGEEKKQTSGTSNTRGSRRKPAMTTPTRRSTRNTRAETASQSQRSPISDNSGCDAPGNSNPSLSVPSSAESEKQTRQAPKRKSVRRGRKPPLLKKKLRSSVAAPEKSSSNDSVDEETAESDTSPVLEKEHQPDVDSSNICTVQTHVENQSANCLKSCNEQIEESEKHTANYDTEERVGSSSSESCAQDLPVLVGEEGEVKKLENTGIEANVLCLESEISENILEKGGDPLEKQDQISGLSQSEVKTDVCTVHLPNDFPTCLTSESKVYQPVSCPLSDLSENVESVVNEEKITESSLVEITEHKDFTLKTEELIESPKLESSEGEIIQTVDRQSVKSPEVQLLGHVETEDVEIIATCDTFGNEDFNNIQDSENNLLKNNLLNTKLEKSLEEKNESLTEHPRSTELPKTHIEQIQKHFSEDNNEMIPMECDSFCSDQNESEVEPSVNADLKQMNENSVTHCSENNMPSSDLADEKVETVSQPSESPKDTIDKTKKPRTRRSRFHSPSTTWSPNKDTPQEKKRPQSPSPRRETGKESRKSQSPSPKNESARGRKKSRSQSPKKDIARERRQSQSRSPKRDTTRESRRSESLSPRRETSRENKRSQPRVKDSSPGEKSRSQSRERESDRDGQRRERERRTRKWSRSRSHSRSPSRCRTKSKSSSFGRIDRDSYSPRWKGRWANDGWRCPRGNDRYRKNDPEKQNENTRKEKNDIHLDADDPNSADKHRNDCPNWITEKINSGPDPRTRNPEKLKESHWEENRNENSGNSWNKNFGSGWVSNRGRGRGNRGRGTYRSSFAYKDQNENRWQNRKPLSGNSNSSGSESFKFVEQQSYKRKSEQEFSFDTPADRSGWTSASSWAVRKTLPADVQNYYSRRGRNSSGPQSGWMKQEEETSGQDSSLKDQTNQQVDGSQLPINMMQPQMNVMQQQMNAQHQPMNIFPYPVGVHAPLMNIQRNPFNIHPQLPLHLHTGVPLMQVATPTSVSQGLPPPPPPPPPSQQVNYIASQPDGKQLQGIPSSSHVSNNMSTPVLPAPTAAPGNTGMVQGPSSGNTSSSSHSKASNAAVKLAESKVSVAVEASADSSKTDKKLQIQEKAAQEVKLAIKPFYQNKDITKEEYKEIVRKAVDKVCHSKSGEVNSTKVANLVKAYVDKYKYSRKGSQKKTLEEPVSTEKNIG [SCAF11] | -1.41 | 2.84 | -0.87 | 52.9 | 53.5 | 0.664
12 | MARSVRVLVDMDGVLADFEAGLLRGFRRRFPEEPHVPLEQRRGFLAREQYRALRPDLADKVASVYEAPGFFLDLEPIPGALDAVREMNDLPDTQVFICTSPLLKYHHCVGEKYRWVEQHLGPQFVERIILTRDKTVVLGDLLIDDKDTVRGQEETPSWEHILFTCCHNRHLVLPPTRRRLLSWSDNWREILDSKRGAAQRE [NT5C] | -0.241 | -1.24 | 0.0484 | 55.9 | 57 | -0.172
